Laboratory results: patent US5990092

Target: GATA-6 (Homo sapiens) (UniProt Q92908)
Assay: cell_activity
Details: luciferase transactivation in p53-/- MEFs

Sequence of GATA-6 (Homo sapiens) (Q92908 147-595): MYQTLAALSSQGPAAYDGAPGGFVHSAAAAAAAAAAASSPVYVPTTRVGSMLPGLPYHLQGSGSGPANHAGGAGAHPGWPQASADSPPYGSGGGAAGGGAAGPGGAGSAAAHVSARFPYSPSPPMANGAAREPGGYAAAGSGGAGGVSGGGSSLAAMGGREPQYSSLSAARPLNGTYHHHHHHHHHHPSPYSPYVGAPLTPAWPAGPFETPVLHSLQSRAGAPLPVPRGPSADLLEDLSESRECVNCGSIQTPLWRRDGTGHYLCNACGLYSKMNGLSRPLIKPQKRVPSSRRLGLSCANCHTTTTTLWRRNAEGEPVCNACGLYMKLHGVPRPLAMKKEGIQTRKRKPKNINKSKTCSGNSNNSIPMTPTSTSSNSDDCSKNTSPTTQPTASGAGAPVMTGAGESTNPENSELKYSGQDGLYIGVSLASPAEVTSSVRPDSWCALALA

With p21 promoter 3.8 kbp the activity was 3.7 fold.
